The record followed here is patent US5444153, “Variants of PAI-2” (Biotech Australia Pty Limited, dated 1995).

Test in all cases: incubation of the purified proteins; SDS-PAGE and western blot with anti-PAI-2
The target of one assay is u-PA (Behring) (Homo sapiens (Human), UniProt P00749).
Assay [1] concerns the target single chain t-PA (American Diagnostica) (Homo sapiens (Human), UniProt P00750).
For assay [2], the target named is two chain t-PA (American Diagnostica) (Homo sapiens (Human), UniProt P00750).

Changes are numbered by the printed parent chain.

B1: PAI-2 deletion variant Δ74-96 (as expressed from pBTA829) (other)
chain: MEDLCVANTLFALNLFKHLAKASPTQNLFLSPWSISSTMAMVYMGSRGSTEDQMAKVLQFNEVGANAVTPMTPAQAADKIHSSFRSLSSAINASTGNYLLESVNKLFGEKSASFREEYIRLCQKYYSSEPQAVDFLECAEEARKKINSWVKTQTKGKIPNLLPEGSVDGDTRMVLVNAVYFKGKWKTPFEKKLNGLYPFRVNSAQRTPVQMMYLREKLNIGYIEDLKAQILELPYAGDVSMFLLLPDEIADVSTGLELLESEITYDKLNKWTSKDKMAEDEVEVYIPQFKLEEHYELRSILRSMGMEDAFNKGRANFSGMSERNDLFLSEVFHQAMVDVNEEGTEAAAGTGGVMTGRTGHGGPQFVADHPFLFLIMHKITNCILFFGRFSSP
With B1, the binding result (in the assay with u-PA (Behring); in assay [1]; in assay [2]) was “binds” each time.

B2: native PAI-2 (as expressed from pBTA641) (other)
chain: MEDLCVANTLFALNLFKHLAKASPTQNLFLSPWSISSTMAMVYMGSRGSTEDQMAKVLQFNEVGANAVTPMTPENFTSCGFMQQIQKGSYPDAILQAQAADKIHSSFRSLSSAINASTGNYLLESVNKLFGEKSASFREEYIRLCQKYYSSEPQAVDFLECAEEARKKINSWVKTQTKGKIPNLLPEGSVDGDTRMVLVNAVYFKGKWKTPFEKKLNGLYPFRVNSAQRTPVQMMYLREKLNIGYIEDLKAQILELPYAGDVSMFLLLPDEIADVSTGLELLESEITYDKLNKWTSKDKMAEDEVEVYIPQFKLEEHYELRSILRSMGMEDAFNKGRANFSGMSERNDLFLSEVFHQAMVDVNEEGTEAAAGTGGVMTGRTGHGGPQFVADHPFLFLIMHKITNCILFFGRFSSP
Consider B2, for which the binding result in assay [1] and in assay [2] was “binds” each time.

B3: second form of native PAI-2 (alternative native PAI-2, expressed from pBTA 683) (other)
chain: B2 chain with N120D, N404K, S413C
For the molecule B3, the binding result in assay [1] and in assay [2] was “binds” in each case.
